Assay results from patent US8765908B2, “Compositions for improving bone mass” (The UAB Research Foundation, priority 2010, dated 2014).
Where a chain is given by its changes, count along the chain named. “Also recorded” adds a separate entry of the source.

Experiments:
[1] = molecular target: T1, RANK fragment 498-556 (Myc-RANK) (Mus musculus, UniProt O35305); experiment: Co-immunoprecipitation with Myc-RANK in 293T cells; format: binding; settings: cotransfection with Myc-RANK in 293T cells; IP then Western blot
T1 construct: expressed in transfected cells; host or cells: 293T cells
T1 sequence (O35305 498-556): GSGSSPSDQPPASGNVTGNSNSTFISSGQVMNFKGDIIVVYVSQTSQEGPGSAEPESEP
Method: (§1) 293T cells were cultured in DMEM containing 10% heat-inactivated fetal bovine serum (HI-FBS) and penicillin/streptomycin (culturing medium). Cells grown near confluence were lifted and replated at density of 5×10^6 cells/dish in 100-mm tissue culture dishes the day before transfection. Total 8 μg plasmid was transfected into 293T cells using Lipofectamine™ in combination of Plus® Reagent (Invitrogen). Briefly, 8 μg plasmid was mixed with 20 μl Plus®Reagent before addition of 350 μl DMEM. The mixture was incubated at RT for 15 min and then added with 380 μl freshly prepared Lipofectamine™ Reagent (Lipofectamine™ Reagent+350 μl DMEM). The complete transfection solution was further incubated at RT for 15 min before being added to one dish of 293T cells which was washed with DMEM twice immediately before the addition of the solution. The cells were incubated at 37° C. for 3 hrs before addition of 6.5 ml culturing medium and the incubation continued overnight. […]
As such, the potential of RYBP as a signaling molecule interacting with the IVVY (SEQ ID NO:4) motif was examined to regulate osteoclastogenesis. […] It was then determined whether the interaction between the RANK fragment and RYBP seen in yeast also occurs in mammalian cells. the cDNA region encoding the bait was cloned into pCMV-Myc vector (BD Biosciences Clontech) to generate Myc-RANK (FIG. 1C). […]

[2] = molecular target: T2, Myc-mRANK (RANK fragment with IVVY to IVAF inactivating mutation) (Mus musculus, UniProt O35305, V537A/Y538F); experiment: Co-immunoprecipitation with Myc-mRANK in 293T cells; format: binding; settings: cotransfection with Myc-mRANK; IP anti-Myc, WB anti-HA
T2 construct: expressed in transfected cells; host or cells: 293T cells
T2 sequence (O35305 498-556 V537A/Y538F): T1 sequence (O35305 498-556) with V40A, Y41F
Method: as §1, with “overnight. Next day, the medium containing the DNA/transfection reagents was replaced with fresh culturing medium.” for “overnight.”
Next, it was determined whether the IVVY (SEQ ID NO:4) motif in the RANK region is specifically responsible for interaction with RYBP. […] Cell lysates were coimmunoprecipitated with anti-Myc antibody and then the precipitates were analyzed by Western analysis with anti-HA antibody.

## HA-RYBP: full-length RYBP cDNA subcloned into pCMV-HA vector
[1]
  interaction with RANK (co-IP band): gave rise to a positive band; also recorded: yielded a positive band
[2]
  interaction with IVVY-mutated RANK (co-IP band): failed to do so
